# Measurements: patent publication KR20180095349A (dated 2018)
# T1: VEGF 항원 단백질 (VEGF-His) (UniProt P15692-4 27-191, limits assumed)
# T1 construct: Expressed from pN293-VEGF in HEK293F cells, purified on Ni-NTA and by gel filtration; also called 혈관 내피세포 성장인자
# T1 sequence: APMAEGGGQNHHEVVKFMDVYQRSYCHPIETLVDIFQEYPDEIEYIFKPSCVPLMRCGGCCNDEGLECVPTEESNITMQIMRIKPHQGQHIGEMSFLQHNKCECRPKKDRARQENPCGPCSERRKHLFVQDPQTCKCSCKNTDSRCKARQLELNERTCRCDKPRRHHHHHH
# B1: 항-VEGF 단일클론 인간항체 7D2 (IgG형) (antibody, V domains shown)
# VH: QMQLVQSGGGLVQPGGSLRLSCAASGFTFSSFEMNWVRQAPGKGLEWLSYISNSGSTIYYADSVKGRFTISRDNAKNSLYLQMNSLRAEDTAVYYCARDSRYYGIHGMDVWGQGTTITVSS
# VL: DIQMTQSPSSLSASVGDRVTITCRASQTISTYLNWYQQKPGKAPKLLIYAASSLQSGVPSRFSGSGSGTDFTLTISSLQPEDFATYYCQQSSSTPRTFGQGTRLEIK
# B2: 항-VEGF 단일클론 인간항체 3H1 (IgG형) (antibody, V domains shown)
# VH: QVQLVESGGGLVKPGGSLRLSCAASGFIFSRYGMNWVRQAPGKGLEWVSSISGSSNYRYYADSVKGRFTISRDNAKNSLYLQMNSLRAEDTAVYYCARDASWGLIQGLDSWGQGTLVTVSS
# VL: DIQMTQSPSSLSASVGDRVTITCRASQSISSYLNWYQQEPGKAPKLLIYDASSLQSGVPSRFSGGGSGTDFTLTISSLQPEDFAAYYCQQSYSTPYTFGQGTKVDIK
# B3: 항-VEGF 단일클론 인간항체 4C4 (IgG형) (antibody, V domains shown)
# VH: QVQLVQSGAEVKKPGSSVKVSCKASGGTFSSSAFSWVRQAPGHGLEWMGRIIPMFDMTDYAQRFQGRLTIIADESSSTAYMELSSLRSEDTAVYYCARYKSGSYGMDVWGQGTTVTVSS
# VL: NFMLTQPASVSGSPGQSITISCTGSSSDVGGYNYVSWYQQHPGKAPQLIIYDVTKRPSGVSNRFSGSKSGNSASLTISGLQAEDEADYYCSSYSSSTFYVFGTGTKVTVL
# Biological target: T1, VEGF 항원 단백질 (VEGF-His)
# Test: ELISA on plate-coated VEGF-His (100 ng/well), IgG diluted 1/2 from 50 nM, anti-human Fc-HRP, fit in GraphPad Prism
row,Binder,Kd
1,B1,0.05 nM
2,B2,0.06 nM
3,B3,0.025 nM
